T1: monkey B7H3-His (monkey)
T1 chain: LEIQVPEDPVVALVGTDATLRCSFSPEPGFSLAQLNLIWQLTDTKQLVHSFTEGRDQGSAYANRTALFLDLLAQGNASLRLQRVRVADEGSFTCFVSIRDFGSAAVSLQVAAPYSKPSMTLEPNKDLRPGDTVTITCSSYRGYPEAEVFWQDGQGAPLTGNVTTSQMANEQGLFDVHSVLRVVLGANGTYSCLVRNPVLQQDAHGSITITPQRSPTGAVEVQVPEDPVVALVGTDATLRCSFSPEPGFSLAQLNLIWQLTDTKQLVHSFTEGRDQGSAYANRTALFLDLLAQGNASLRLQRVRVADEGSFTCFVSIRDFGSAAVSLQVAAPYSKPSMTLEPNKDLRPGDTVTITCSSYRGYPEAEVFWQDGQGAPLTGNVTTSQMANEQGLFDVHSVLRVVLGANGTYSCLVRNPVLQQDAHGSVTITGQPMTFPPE

T2: human B7H3 (human, UniProt Q5ZPR3 29-466, limits assumed)
T2 construct: also called human B7H3 protein
T2 sequence (looked up): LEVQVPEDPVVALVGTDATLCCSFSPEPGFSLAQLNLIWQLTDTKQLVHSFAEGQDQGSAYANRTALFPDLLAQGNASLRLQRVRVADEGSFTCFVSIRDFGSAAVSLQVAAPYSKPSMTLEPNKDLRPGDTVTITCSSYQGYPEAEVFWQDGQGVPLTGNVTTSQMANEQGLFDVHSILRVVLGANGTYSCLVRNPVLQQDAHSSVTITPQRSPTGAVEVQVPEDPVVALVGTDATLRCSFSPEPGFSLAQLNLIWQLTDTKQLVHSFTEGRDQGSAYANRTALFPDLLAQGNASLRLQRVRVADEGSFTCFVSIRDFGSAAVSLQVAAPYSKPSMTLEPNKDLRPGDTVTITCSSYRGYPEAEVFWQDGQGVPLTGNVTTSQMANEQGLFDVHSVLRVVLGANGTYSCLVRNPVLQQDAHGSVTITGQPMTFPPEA

T3: B7H3 (CD276) on MC38-CD276+ cells
T3 construct: whole, on cells; MC38-CD276KO cells served as the negative control; also called MC38-B7H3+
T3 sequence (Q5ZPR3 1-534, species assumed, looked up): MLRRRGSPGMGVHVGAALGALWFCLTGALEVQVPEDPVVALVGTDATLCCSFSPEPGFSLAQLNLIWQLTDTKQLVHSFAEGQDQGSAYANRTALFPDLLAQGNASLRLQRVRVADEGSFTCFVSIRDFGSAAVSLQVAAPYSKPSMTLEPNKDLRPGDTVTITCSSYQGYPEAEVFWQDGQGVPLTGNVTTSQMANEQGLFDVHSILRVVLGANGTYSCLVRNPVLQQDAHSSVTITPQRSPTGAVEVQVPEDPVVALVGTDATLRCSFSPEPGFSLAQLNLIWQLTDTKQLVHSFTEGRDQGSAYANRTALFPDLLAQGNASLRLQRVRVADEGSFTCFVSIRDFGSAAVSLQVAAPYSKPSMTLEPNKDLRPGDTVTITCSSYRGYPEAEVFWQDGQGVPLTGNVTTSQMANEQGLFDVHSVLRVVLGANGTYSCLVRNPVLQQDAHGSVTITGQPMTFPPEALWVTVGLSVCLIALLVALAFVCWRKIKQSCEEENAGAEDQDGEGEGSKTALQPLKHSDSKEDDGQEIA

T4: recombinant human B7H3-Fc protein (human, UniProt Q5ZPR3 29-466, limits assumed)
T4 construct: 154 kDa non-reduced, 77 kDa reduced; also called hB7H3-Fc; not shown: Fc part
T4 sequence (looked up): T2 sequence (looked up)

T5: rat B7H3-His (rat, UniProt Q7TPB4 29-244, limits assumed)
T5 construct: not shown: His tag
T5 sequence (looked up): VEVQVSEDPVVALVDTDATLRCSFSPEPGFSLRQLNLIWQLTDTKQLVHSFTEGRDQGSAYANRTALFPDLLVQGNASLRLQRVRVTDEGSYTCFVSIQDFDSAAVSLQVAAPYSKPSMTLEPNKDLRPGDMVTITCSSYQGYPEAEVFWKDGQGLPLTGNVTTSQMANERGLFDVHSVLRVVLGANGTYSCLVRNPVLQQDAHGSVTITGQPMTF

T6: hB7H3-His (human, UniProt Q5ZPR3 29-461, limits assumed)
T6 construct: not shown: His tag
T6 sequence (looked up): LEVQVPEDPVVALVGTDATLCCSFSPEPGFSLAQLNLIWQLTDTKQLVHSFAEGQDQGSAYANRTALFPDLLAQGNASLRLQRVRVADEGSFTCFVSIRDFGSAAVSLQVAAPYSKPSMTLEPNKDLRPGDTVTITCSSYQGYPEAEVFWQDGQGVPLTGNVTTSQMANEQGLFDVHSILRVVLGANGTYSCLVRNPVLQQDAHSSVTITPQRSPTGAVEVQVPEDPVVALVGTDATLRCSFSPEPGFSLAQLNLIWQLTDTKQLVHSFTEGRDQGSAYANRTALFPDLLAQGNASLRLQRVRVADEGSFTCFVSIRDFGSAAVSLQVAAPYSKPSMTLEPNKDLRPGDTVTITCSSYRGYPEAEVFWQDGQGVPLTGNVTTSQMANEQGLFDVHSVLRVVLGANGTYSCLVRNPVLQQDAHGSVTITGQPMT

B1: RWC4 (VHH)
VHH: EVQLVESGGGSVQAGGSLRLSCVASEDSTSAMCMGWFRQAPGKEREGVACINPTGEVTWYGDSVKGRFTISRDTVKKIVYLQMNSLKPEDTAMYYCAARVTYGGDWSTDTDYEYWGQGTQVTVSS
notes: Camel VHH; tag not described; also called camel antibody RWC4
B2: RWB12 (VHH)
VHH: QVQLVESGGGSVQVGGSLRLSCAASGFTYNSYSVGWFRQAPGKEREGVAAINSGGSSTYYAASVKGRFTISRDNAKNTVYLQMNSLKPEDTAMYYCAARSPSPLTFQTRTLREDSYNYWGQGTQVTVSS
notes: Camel VHH; tag not described; also called camel antibody RWB12
B3: RWG8 (VHH)
VHH: DVQLVESGGGLVQPGGSLRLSCAASGFTFSRYWMGWFRQAPGKGVEWVSTINSGGGSTYYADSVKGRFTISRDNAKNTLYLQLNNLKTEDTAMYYCAKEQWRTGSRGQGTQVTVSS
notes: Camel VHH; tag not described; also called camel antibody RWG8
B4: RWG4 (VHH)
VHH: QVQLVQSGGGLVQPGGSLRLSCAASGFTFSVYWFYWVRQAPRQGLEWVSTIASNGSTYYSDSVKGRFTISRDNAKNTVYLQMNSLKPEDTAVYYCVSDPDYYSDYERAYKFWAQGTQVTVSS
notes: Camel VHH; tag not described; also called camel antibody RWG4

Molecular target: T1, monkey B7H3-His
Assay: ELISA; row Monkey; well 3 of 3
In short: (§1)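 Phage panning on recombinant B7H3-Fc yielded camel VHH nanobodies, which were then purified. Their binding was tested by ELISA against immobilised recombinant proteins, including B7H3 fusion proteins and proteins other than B7H3, and recorded as the ELISA signal.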

With B1 as the binder, how does the “ELISA reading (name not given)” value read?
Its value is 1.04.

For B2, which “ELISA reading (name not given)” value is on record?
The value was 0.178.

For B3, which “ELISA reading (name not given)” value is on record?
The value was 0.195.

Molecular target: PD-L1
Sequence (Q9NZQ7 whole entry): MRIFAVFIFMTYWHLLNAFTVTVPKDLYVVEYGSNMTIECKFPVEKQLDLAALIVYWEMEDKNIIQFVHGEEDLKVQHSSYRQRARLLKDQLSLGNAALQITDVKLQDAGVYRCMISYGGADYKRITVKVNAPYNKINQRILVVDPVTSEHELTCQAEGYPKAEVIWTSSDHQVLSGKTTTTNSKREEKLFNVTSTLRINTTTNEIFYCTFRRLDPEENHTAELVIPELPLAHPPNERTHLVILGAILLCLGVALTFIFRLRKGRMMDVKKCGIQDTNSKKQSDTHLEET
Assay: ELISA, purified VHH, cross-reaction

With B1 as the binder, how does the ELISA signal read?
The ELISA signal was 0.043.

For B4, which ELISA signal is on record?
The ELISA signal was 0.0614.

How did the ELISA signal turn out when B2 was run?
The ELISA signal was 0.0454.

Which ELISA signal does the source give for B3 here?
The ELISA signal was 0.0715.

Molecular target: T2, human B7H3
Assay: ELISA; row Human; well 1 of 3
In short: as §1

B1 was tested. Which “ELISA reading (name not given)” value did it give?
Its value is 0.976.

Which “ELISA reading (name not given)” value does the source give for B2 here?
The value was 0.181.

Which “ELISA reading (name not given)” value does the source give for B3 here?
The value was 0.136.

Molecular target: T3, B7H3 (CD276) on MC38-CD276+ cells
Assay: flow cytometry on MC38-CD276+ cells, VHH at 10 ug/ml

How did the Positive rates turn out when B1 was run?
The Positive rates was 98.3%.

Which Positive rates does the source give for B4 here?
Its Positive rates is 85.8%.

Which Positive rates does the source give for B2 here?
Its Positive rates is 4.16%.

With B3 as the binder, how does the Positive rates read?
Its Positive rates is 4.68%.

Molecular target: B7H3 R&D
Assay: ELISA; row B7H3 R&D; well 3 of 3
In short: as §1

B1 was tested. Which “ELISA reading (name not given)” value did it give?
Its value is 0.156.

For B2, which “ELISA reading (name not given)” value is on record?
The value was 0.0955.

How did the “ELISA reading (name not given)” value turn out when B3 was run?
Its value is 0.0646.

Molecular target: T4, recombinant human B7H3-Fc protein
Assay: phage ELISA
In short: (§2)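 Camel VHH phage from libraries of eight individual camels went through 3 rounds of panning on recombinant B7H3-Fc protein. The recorded ELISA signal reflects binding of the selected phage to immobilised human or other-species B7H3, or to control proteins, in a phage ELISA.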

With B1 as the binder, how does the ELISA signal read?
Its ELISA signal is 2.66.

With B4 as the binder, how does the ELISA signal read?
The ELISA signal was 2.13.

B2 was tested. Which ELISA signal did it give?
The ELISA signal was 2.48.

For B3, which ELISA signal is on record?
Its ELISA signal is 2.52.

Molecular target: IgG control
Assay: phage ELISA
In short: as §2

Which ELISA signal does the source give for B1 here?
The ELISA signal was 0.0777.

How did the ELISA signal turn out when B4 was run?
Its ELISA signal is 0.103.

For B2, which ELISA signal is on record?
Its ELISA signal is 0.164.

B3 was tested. Which ELISA signal did it give?
Its ELISA signal is 0.101.

Molecular target: T1, monkey B7H3-His
Assay: phage ELISA, cross-species
In short: as §2

B1 was tested. Which ELISA signal did it give?
Its ELISA signal is 1.54.

B4 was tested. Which ELISA signal did it give?
The ELISA signal was 0.19.

How did the ELISA signal turn out when B2 was run?
Its ELISA signal is 2.31.

Which ELISA signal does the source give for B3 here?
Its ELISA signal is 2.43.

Molecular target: T2, human B7H3
Assay: phage ELISA, cross-species
In short: as §2

How did the ELISA signal turn out when B1 was run?
The ELISA signal was 2.5.

With B4 as the binder, how does the ELISA signal read?
Its ELISA signal is 1.72.

For B2, which ELISA signal is on record?
Its ELISA signal is 2.74.

Which ELISA signal does the source give for B3 here?
Its ELISA signal is 2.67.

Molecular target: T5, rat B7H3-His
Assay: phage ELISA, cross-species
In short: as §2

How did the ELISA signal turn out when B4 was run?
The ELISA signal was 0.292.

Which ELISA signal does the source give for B2 here?
Its ELISA signal is 2.07.

Which ELISA signal does the source give for B3 here?
Its ELISA signal is 2.44.

Molecular target: Non-relevant antigen
Assay: phage ELISA, cross-species
In short: as §2

For B1, which ELISA signal is on record?
Its ELISA signal is 0.0764.

With B4 as the binder, how does the ELISA signal read?
The ELISA signal was 0.14.

For B2, which ELISA signal is on record?
The ELISA signal was 0.0597.

B3 was tested. Which ELISA signal did it give?
The ELISA signal was 0.0659.

Molecular target: T6, hB7H3-His
Assay: ELISA; row B7H3-his; well 2 of 3
In short: as §1

Which “ELISA reading (name not given)” value does the source give for B1 here?
Its value is 0.0879.

For B2, which “ELISA reading (name not given)” value is on record?
Its value is 0.0595.

B3 was tested. Which “ELISA reading (name not given)” value did it give?
The value was 0.0686.

From patent US20220380471A1 (US Dept. of Health and Human Services, published 2022)
